Source: IntAct's records for PubMed 21321230

Legend:
dcc_rat Dcc [1] = biological target: dcc_rat Dcc (UniProt Q63155)
dcc_rat Dcc [2] = biological target: dcc_rat Dcc (UniProt Q63155); remark: listed apart in the source

Chain of UniProt Q63155 (Q63155 whole entry): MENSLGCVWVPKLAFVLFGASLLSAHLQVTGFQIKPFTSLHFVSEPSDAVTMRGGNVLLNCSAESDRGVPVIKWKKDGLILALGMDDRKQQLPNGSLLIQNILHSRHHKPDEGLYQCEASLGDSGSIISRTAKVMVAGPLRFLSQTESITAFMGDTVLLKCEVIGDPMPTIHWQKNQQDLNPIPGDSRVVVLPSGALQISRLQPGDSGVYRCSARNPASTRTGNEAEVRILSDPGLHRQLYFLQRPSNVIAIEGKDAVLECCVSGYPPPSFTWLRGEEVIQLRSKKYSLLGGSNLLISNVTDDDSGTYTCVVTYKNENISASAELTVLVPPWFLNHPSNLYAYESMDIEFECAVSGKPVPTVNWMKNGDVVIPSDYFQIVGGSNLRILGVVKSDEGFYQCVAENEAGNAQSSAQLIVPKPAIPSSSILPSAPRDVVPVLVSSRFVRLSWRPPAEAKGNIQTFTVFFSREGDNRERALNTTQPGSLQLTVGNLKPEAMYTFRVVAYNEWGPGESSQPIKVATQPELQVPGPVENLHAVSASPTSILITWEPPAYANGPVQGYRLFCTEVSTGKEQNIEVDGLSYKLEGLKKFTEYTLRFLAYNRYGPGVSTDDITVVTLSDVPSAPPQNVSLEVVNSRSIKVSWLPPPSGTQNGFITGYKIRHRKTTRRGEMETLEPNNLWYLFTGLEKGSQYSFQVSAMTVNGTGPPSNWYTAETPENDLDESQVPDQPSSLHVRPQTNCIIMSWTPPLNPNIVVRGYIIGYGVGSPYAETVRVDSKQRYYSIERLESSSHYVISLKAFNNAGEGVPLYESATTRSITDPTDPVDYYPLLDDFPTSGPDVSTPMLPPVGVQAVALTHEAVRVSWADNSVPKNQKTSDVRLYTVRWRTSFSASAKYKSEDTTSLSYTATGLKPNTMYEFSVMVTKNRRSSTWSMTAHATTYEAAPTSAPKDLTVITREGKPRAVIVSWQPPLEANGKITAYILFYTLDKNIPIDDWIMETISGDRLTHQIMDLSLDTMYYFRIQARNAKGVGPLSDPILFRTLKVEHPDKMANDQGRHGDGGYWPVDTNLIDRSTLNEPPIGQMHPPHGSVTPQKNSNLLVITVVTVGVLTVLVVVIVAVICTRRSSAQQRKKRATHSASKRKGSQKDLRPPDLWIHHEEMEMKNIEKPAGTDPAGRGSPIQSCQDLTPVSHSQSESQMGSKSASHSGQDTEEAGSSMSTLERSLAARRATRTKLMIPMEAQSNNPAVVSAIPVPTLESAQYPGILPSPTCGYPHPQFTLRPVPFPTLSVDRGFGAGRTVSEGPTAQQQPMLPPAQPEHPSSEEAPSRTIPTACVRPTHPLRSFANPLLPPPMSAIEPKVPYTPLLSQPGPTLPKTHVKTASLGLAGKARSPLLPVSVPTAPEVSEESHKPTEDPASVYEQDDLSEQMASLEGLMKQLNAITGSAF

effect of a mutation on the interaction (dcc_rat Dcc [1]) | effect of a mutation on the interaction (dcc_rat Dcc [2]) | Substance
disrupting interaction strength |  | Unconventional myosin-X (Homo sapiens), Q9HD67 I2037E
 | disrupting interaction strength | Unconventional myosin-X (Homo sapiens), Q9HD67 S1718A;H1719A
 | disrupting interaction strength | Unconventional myosin-X (Homo sapiens), Q9HD67 S1718A;H1719A;D1763A;E1769A;K1770A
